Measured values: patent publication US20220048999A1 (Genmab, published 2022)

Assays:
[1] = target: T1, human B7H4, full length, on cells (human, UniProt Q7Z7D3 25-282); assay: flow cytometry, HEK-293F cells transfected with human B7H4 (panel Human B7H4), about 0.0004-30 µg/ml, MFI PE
T1 construct: On transiently transfected HEK cells or on B7H4-expressing human tumor cell lines; also called VTCN1
T1 sequence: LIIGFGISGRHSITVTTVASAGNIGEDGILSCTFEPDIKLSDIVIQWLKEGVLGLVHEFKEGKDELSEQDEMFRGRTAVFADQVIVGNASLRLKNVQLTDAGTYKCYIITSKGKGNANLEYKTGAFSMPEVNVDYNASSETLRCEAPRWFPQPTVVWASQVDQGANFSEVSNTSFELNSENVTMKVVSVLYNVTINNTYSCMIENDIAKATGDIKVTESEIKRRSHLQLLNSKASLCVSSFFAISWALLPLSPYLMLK
Protocol: (§1) Cells (3×10⁴ cells/well) were incubated in polystyrene 96-well round-bottom plates (Greiner bio-one, cat. no. 650180) with serial dilutions of antibodies (ranging from 0.000458 to 30 μg/mL in 4-fold dilution steps) in 100 μL PBS/0.1% BSA/0.02% azide (staining buffer) at 4° C. for 30 min. Experiments were performed in technical duplicate. After washing twice in staining buffer, cells were incubated in 50 μL secondary antibody at 4° C. for 30 min. As a secondary antibody, R-Phycoerythrin (PE)-conjugated goat-anti-human IgG F(ab′)₂ (1:500 in FACS buffer; Jackson ImmunoResearch Laboratories, Inc., West Grove, Pa., cat. no. 109-116-098), was used. Cells were washed twice in staining buffer, re-suspended in 30 μL FACS buffer containing Topro-3 (1:10,000 dilution) and analyzed on an iQue Screener (Intellicyt Corporation, USA). Binding curves were analyzed using non-linear regression (sigmoidal dose-response with variable slope) using Graph Pad Prism V7.02 software (GraphPad Software, San Diego, Calif., USA).

[2] = target: T2, cynomolgus monkey (Macaca fascicularis) B7H4 transcript 1, full length, on HEK-293F cells (cynomolgus monkey, UniProt Q7Z7D3 25-282 (human entry)); assay: flow cytometry, HEK-293F cells transfected with cynomolgus monkey B7H4 (panel Cynomolgus monkey B7H4), about 0.0004-30 µg/ml, MFI PE
T2 construct: also called cynomolgus B7H4
T2 chain: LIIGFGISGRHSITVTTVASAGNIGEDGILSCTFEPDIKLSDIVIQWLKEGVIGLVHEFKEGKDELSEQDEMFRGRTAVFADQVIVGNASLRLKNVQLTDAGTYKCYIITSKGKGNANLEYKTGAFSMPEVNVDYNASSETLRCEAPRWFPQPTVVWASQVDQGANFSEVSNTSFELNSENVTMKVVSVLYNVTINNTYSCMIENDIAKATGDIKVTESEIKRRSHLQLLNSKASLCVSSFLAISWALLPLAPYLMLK
Protocol: as §1

[3] = target: T3, mouse (Mus musculus) B7H4, full length, on HEK-293F cells (mouse, UniProt Q7TSP5 25-257); assay: flow cytometry, HEK-293F cells transiently transfected with mouse B7H4 (panel Mouse B7H4), 0.000458-30 µg/ml, PE-anti-human IgG, MFI PE
T3 sequence: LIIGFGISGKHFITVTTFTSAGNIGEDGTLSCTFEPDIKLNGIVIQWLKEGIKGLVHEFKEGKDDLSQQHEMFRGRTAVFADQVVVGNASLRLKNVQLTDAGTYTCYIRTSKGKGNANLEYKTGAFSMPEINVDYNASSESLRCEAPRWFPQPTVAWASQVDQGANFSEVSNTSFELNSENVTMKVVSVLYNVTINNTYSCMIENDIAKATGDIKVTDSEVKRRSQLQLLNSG
Protocol: as §1

EC50 (read off the curve) [1]: ~0.04 µg/mL
EC50 (read off the curve) [2]: ~0.1 µg/mL
EC50 (read off the curve) [3]: ~0.4 µg/mL
B1: IgG1-B7H4-C1-N52S-FEAR (antibody, V domains shown)
VH: QVQLQQWGAGLLKPSETLSLTCAVYGGSFSGYYWSWIRQPPGKGLEWIGEISHSGSTNYNPSLKSRVTISIDTSKNQFSLKLTSVTAADTAVFYCARGLFNWNFDSWGQGTLVTVSS
VL: DIQMTQSPSSLSASVGDRVTITCRASQGIRNDLGWYQQKPGKAPKRLIYGASSLQSGVPSRFSGSGSGTEFTLTISSLQPEDFATYYCLQHNSYPRTFGQGTTVEIKR
notes: Full-length human IgG1 with L234F, L235E, D265A, K409R (FEAR), kappa light chain; also called IgG1-B7H4-C1-052S-FEAR; IgG1-B7H4-C1-N525-FEAR
